# Results as given in the supplement of paper PMC12636428.
# System: Saccharomyces cerevisiae
# Test: transcriptional activation domain activity (GFP:mCherry ratio, weighted mean of sorted bins, harmonized to initial dataset scale) (arbitrary fluorescence ratio units); higher = stronger transcriptional activation
# Details: beta-estradiol 1 µM; induction time 4 h
# How it was run: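 Barcoded protein tiles fused to an estradiol-inducible synthetic transcription factor were integrated at the yeast URA3 locus, in diploids carrying a GFP reporter. Cultures were diluted 1:5 into SC with 1 uM beta-estradiol, held 4 hours at 30 °C, sorted into 8 bins by GFP:mCherry ratio, and barcodes sequenced. Tiles under 50 reads were discarded. Activation activity is the read-weighted mean of bin median fluorescence, averaged across barcodes, then linearly mapped onto the initial dataset scale.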
row,Sequence,transcriptional activation domain activity
1,DSGKQGFLFLVCLVFFVFFWGFACDLWLGLLLLFFFFPFLSFPLFSLPHYHGH,43900
2,LIVVFAQSKIDSDEASVPVDEELNGVSLLVRILSDSAGRIYMIVTLELLLKRN,53600
3,FSLLSFCCLLVPLLLSYIPLTTSHVFPILLFFFTLPLTSALPLLLLYLFHELL,47000
4,KKGREDMGNERKGNDMEGREGEKRGRKGKREGGGKGGKGGEKQREGRTGERGR,21800
5,AGQILANQVIITNLTNFIYSITPLPVRYYYLLEMLKFIFFLFMLGMLPLALCA,52400
6,WLNGCFLLVGHIIFQLVMCYQLAQIIRGIVQMYGHLWISNDWHCLWITWLILF,63600
7,GEGKRGGVGKKGKGKTKGKEGSIGKSNAKKGASETPKKEKEKARGAEASDKGS,45600
8,MLSGLRHLRDEHIFAAAVGFFSHIYYYRYGEHHMQAPLLFWMHISVFLMLFYW,40100
9,QLNLVNHFYQFSLRFFLDIFDYILHHNPNLKGVTDYSRRRAILLNDLFLVVYQ,55500
10,FRYLSYSKWLILALYINSWAYVVLSMLLVYVVSASRKGRWRSASYRFHMILLS,64100
11,LTHEFRMGLIPLGLVALLSSGTTLTLICFICWRLVTWKLHYNTFLGYNQYVLL,50400
12,GDDCEVFFLFTFTFTFFFFYFFPRVLFTPFFFYILDLSLFFYCCSCFFFFSPC,27100
13,IAQRLEILIYSHIVCIPLIASFSCLSWIFWMEYYFAWWFDSVITIRDINWHML,36500
14,KESTTPSGTIKEVEGGEKGEEGTVAKQNNGEKGLVKSAGRNFLVDERVLRQSF,40600
15,MLTEVLEYCYVHGKKAYVLFNILQHVLDCHDYISFTHQLVLVMKYAKYQYVIA,55100
16,AEAGTSKTAAKAEATPVEGTSAPVEGKAQKKEKKEKKPPAEEAGAGKKKGGAA,16100
17,IEKLGITVLQREVVNNGLEISHDFRALRVALCARQPLLQVVWFKNHLPSVYYF,69900
18,TESVCWDFVWLTFYFTFGLTSLITSWAALPPLSQWSLSFGQLVPIFLLLFFLT,46700
19,NTWLQQLQDELNGSYSLTDNVNTPIDPSLSDLGVTSASPLAGNSPGLPPEEVR,92100
20,MQETNGNTTAADQGSRHDVPPPRRPTRSRNGCMTCRRRKVRCDEQRPRCSHCE,8920
21,RGSYRLFLIHARLICTIHPLHLPLLYFPAYSMCILYPTPTYITSCSLLAVSFV,55700
22,IYCAGWVFRYFFLFPYRLSLLLAATLFFFLALPIVLYFKNDEWQRWLFRFYCQ,57500
23,MLLDPRVIPLIFSTLFLFLHFNFLPNFPPLPLSFHPRPTLLPPFCSLLFPLLF,80000
24,SLVLPCLSSYHYRFIDDYHVLHAQVKLMQGVLWWSMVQNITVYLLFLLLFLFA,25200
25,EHSTTGDSWFLGLVLCYPLRSYGYFMLFFIWLRLFLVLAFQFLLYACNYLFIL,62200
26,ERHLLPGNIFWAVAFGWWLSGCCMIVSGLLYLVPMGGGRYGKLIYGLGWYLAW,65400
27,RRGSKGKQRASGNRGPGGSGGSRGWGQRTASHGKAGKGTGKRSGSNSGSHGES,37100
28,PFLPSSLPPFLPSSLPPFLPSSLPPFLPSSLPPSLLFSFLFSFPLPSPPSLPL,64000

row,Sequence,transcriptional activation domain activity
1,AASETTAKKSRGRKRKTVPEPDCDDEDNTGAARCSQPRSRKRARTTAPAEPRE,12200
2,PNLLMPCPWRSMDLCIFFRLAVGFFFLFLFPLSLSLPPSPFFFLFFSTPVIMV,62500
3,PILIPGGLGVVLLHLPASFTKIECNESGFHQFIKRRCRLLLGVEPGMKVVVLT,60900
4,MPTTSHSLFLRYVFLFVAWLVFREVFALMGFFLLLIFLIPKIVKVPFFFFFFL,55000
5,GASTPVTTGGKRKSDGGAGGSAKKERKTPAAKKDKEEKAPRGKANGAKATAAS,22000
6,QLFTFLLQTYRMKYLVQRVSPRTIRQINDVRLRHLSYKLRQRLIWFADIMRSY,58900
7,AAAVEKTEEEKPVAAAAAPAAEKEKAPAAKAKKATTTKKAAAPKKAAAPKAKK,27700
8,MSIPPRLFYITFLLCFFNLLAYFHSLLFLSFNFPLQYLFTVNSVMHLVVSLPG,53900
9,YEIKRRLQVCRAVLDEHINPYEFKHHTVYREALLKLMYFHCVISLRLVLSWTD,65300
10,MGYCFFLYIYIPFTLLFSNTCRLVGVFLSFYICMIGYSLLWLPNLWLAFFLIN,37700
11,MEVCSVWISSLWFFVFSAFSVLGLWSLVFGIWSFRESGWYMGPGFFFFFFLIL,63100
12,MNAFRPLHFLFYFIFLLLSMKALRFFIFSIFFFIFLHLHLCIHIYIALLFSYP,30600
13,EPFHLQHQSNHVYGKIVIGDSLMDEWFIVYLLRELSLWLDHLVIRYIYRRLMI,59900
14,AIGISGYVLPCLYRLALLVLNTTPNQPLDALLSFSHYTLQNSALAHFLPLFVN,53400
15,AAAAAAAEGDGEGKGKEDGEDKEKEGGNGEAEAEAGAEGKKAAAGAAQKESSN,35100
16,YYLGKYQENSKEKRKFQVIRSGMSELNHILYMALDNATNMVIMWMLLVQYHAT,55600
17,ASGAKTVVKKEPASATPEPAPKQAEVKKPAAAEAAPVPAAKAAPALASAAAAA,43400
18,ADDVGKWGAGLPGSAAVGGAGGGEEEEGKEKKAGGGMAARVLISEVSIKLLVP,33800
19,RFGGSARGGGTGVEPPAKGKKGGGEEREGGEGRKGKGGRGPGTRERKGKERER,< 6570
20,MSYCIDFPVISSFPAASFYFIFMGTLQDHLPFSLLVYSTLIPFFFFSFLFLSF,41600
21,VVENHKREVQYARYHCLKSWRLTLDVCLKRAFHLVPTVGRHELLISMLQAIIG,37300
22,ADALSARSPKKGKKGKKGKKGKKGKKGKKAGAAAAAAGGAAGANGAKAAGAKA,33300
23,MLFPFRVSAISPDVICFIPLCFSFCYHFAIRVRGILPSRVRALMMYVWFVWYF,51900
24,MEGRHISVIKQLYGLYWLDVWKISLQLWSEVKGMYHVLQQNLWIITLFPFFAA,64000
25,GGLFGAKPATTGGLFGSTPAAQPAQTGGLFGGGGTTGGFGASTTGGAFGSTPA,48500
26,NNGKGQGKRRASSSALAAEKMVEKEAWLRSPKAVCTLSIAVMRSALHLMNAHL,67700
27,MQAGIHNVLFHFRNKWWIQIIGSGLPYFVLLAGRGLMCIFLFLIFRLRRCLCV,67300
